Experimental findings from PMC10397247 are described below.

The target in test [1] is T1, 4H2935-AA.
T1 chain: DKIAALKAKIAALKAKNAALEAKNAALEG
Description: two-hybrid library CCmax.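 Also: natural log of median RNA to DNA barcode read ratio; higher means stronger binding.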

Test [2] addresses T2, 4H327-AA.
T2 chain: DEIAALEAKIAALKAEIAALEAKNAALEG
In words: two-hybrid library CCmax.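 Also: natural log of median RNA to DNA barcode read ratio; higher means stronger binding.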 Conditions: mean of both orientations.

For test [3], the target named is T3, 4H3605-AA.
T3 chain: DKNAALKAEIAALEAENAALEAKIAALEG
Description: two-hybrid library CCmax.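 Also: natural log of median RNA to DNA barcode read ratio; higher means stronger binding.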 The settings on record: mean of both orientations.

The target in test [4] is T4, 4H3625-AA.
T4 chain: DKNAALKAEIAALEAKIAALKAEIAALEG
Description: two-hybrid library CCmax.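 Also: natural log of median RNA to DNA barcode read ratio; higher means stronger binding.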 Conditions: mean of both orientations.

Test [5] concerns the target T5, 4H3664-AA.
T5 chain: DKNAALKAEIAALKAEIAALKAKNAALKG
Description: two-hybrid library CCmax.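 Also: natural log of median RNA to DNA barcode read ratio; higher means stronger binding.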 The settings on record: mean of both orientations.

Test [6] deals with T6, 4H369-AA.
T6 chain: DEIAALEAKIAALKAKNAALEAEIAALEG
In words: two-hybrid library CCmax.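 Also: natural log of median RNA to DNA barcode read ratio; higher means stronger binding.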 The settings on record: mean of both orientations.

Test [7] addresses T7, 4H3922-AA.
T7 chain: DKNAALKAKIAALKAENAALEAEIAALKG
In words: two-hybrid library CCmax. Conditions: mean of both orientations.

Test [8] deals with T8, 4H4033-AA.
T8 chain: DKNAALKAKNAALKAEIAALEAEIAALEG
In words: two-hybrid library CCmax. The settings on record: mean of both orientations.

The target of test [9] is T9, 4H481-AA.
T9 chain: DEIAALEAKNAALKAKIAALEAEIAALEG
Description: two-hybrid library CCmax. The settings on record: mean of both orientations.

Test [10] deals with T10, 4H55-AA.
T10 chain: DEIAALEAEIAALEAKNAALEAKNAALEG
Description: two-hybrid library CCmax. The settings on record: mean of both orientations.

Test [11] concerns the target T11, 4H662-AA.
T11 chain: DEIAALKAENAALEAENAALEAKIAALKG
In words: two-hybrid library CCmax. Conditions: mean of both orientations.

In test [12] the target is T12, 4H3858-bA.
T12 chain: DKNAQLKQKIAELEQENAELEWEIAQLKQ
Description: two-hybrid library CCNG1.

For test [13], the target named is T13, 4H3974-bA.
T13 chain: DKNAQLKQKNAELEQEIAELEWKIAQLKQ
In words: two-hybrid library CCNG1.

For test [14], the target named is T14, 4H570-bA.
T14 chain: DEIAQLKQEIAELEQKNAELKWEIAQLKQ
Description: two-hybrid library CCNG1.

For test [15], the target named is T15, 4H850-bA.
T15 chain: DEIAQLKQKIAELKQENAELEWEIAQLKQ
In words: two-hybrid library CCNG1.

Test [16] deals with T16, 4H3354-bN.
T16 chain: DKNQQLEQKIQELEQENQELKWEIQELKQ
Description: two-hybrid library CCNG1.

Test [17] deals with T17, 4H338-bN.
T17 chain: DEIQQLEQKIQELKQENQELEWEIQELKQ
In words: two-hybrid library CCNG1.

The target of test [18] is T18, 4H3427-bN.
T18 chain: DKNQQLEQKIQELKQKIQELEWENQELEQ
In words: two-hybrid library CCNG1.

Test [19] has as its target T19, 4H3782-bN.
T19 chain: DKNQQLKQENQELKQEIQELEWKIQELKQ
Description: two-hybrid library CCNG1.

For test [20], the target named is T20, 4H3855-bN.
T20 chain: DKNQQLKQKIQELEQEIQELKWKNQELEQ
In words: two-hybrid library CCNG1.

For test [21], the target named is T21, 4H4001-bN.
T21 chain: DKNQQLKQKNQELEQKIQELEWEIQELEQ
Description: two-hybrid library CCNG1.

Test [22] addresses T22, 4H454-bN.
T22 chain: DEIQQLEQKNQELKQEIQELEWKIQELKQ
In words: two-hybrid library CCNG1.

Test [23] deals with T23, 4H568-bN.
T23 chain: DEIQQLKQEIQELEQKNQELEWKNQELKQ
In words: two-hybrid library CCNG1.

Test [24] deals with T24, 4H607-bN.
T24 chain: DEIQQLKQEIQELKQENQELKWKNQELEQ
In words: two-hybrid library CCNG1.

For test [25], the target named is T25, 4H687-bN.
T25 chain: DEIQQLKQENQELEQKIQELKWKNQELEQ
In words: two-hybrid library CCNG1.

Test [26] has as its target T26, 4H717-bN.
T26 chain: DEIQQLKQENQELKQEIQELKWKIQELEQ
Description: two-hybrid library CCNG1.

The target in test [27] is T27, 4H72-bN.
T27 chain: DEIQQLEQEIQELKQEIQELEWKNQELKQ
In words: two-hybrid library CCNG1.

The target in test [28] is T28, 4H754-bN.
T28 chain: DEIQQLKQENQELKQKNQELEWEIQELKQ
In words: two-hybrid library CCNG1.

Test [29] has as its target T29, 4H797-bN.
T29 chain: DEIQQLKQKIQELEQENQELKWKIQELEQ
Description: two-hybrid library CCNG1.

The target of test [30] is T30, 4H883-bN.
T30 chain: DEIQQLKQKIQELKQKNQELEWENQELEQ
Description: two-hybrid library CCNG1.

The target in test [31] is T31, 4H908-bN.
T31 chain: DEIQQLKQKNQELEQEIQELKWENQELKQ
In words: two-hybrid library CCNG1.

Test [32] has as its target T32, 4H918-bN.
T32 chain: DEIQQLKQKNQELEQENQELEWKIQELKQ
In words: two-hybrid library CCNG1.

Test [33] addresses T33, 4H953-bN.
T33 chain: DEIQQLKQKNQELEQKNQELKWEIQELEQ
In words: two-hybrid library CCNG1.

Test [34] concerns the target T34, 4H967-bN.
T34 chain: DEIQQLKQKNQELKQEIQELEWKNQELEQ
In words: two-hybrid library CCNG1.

Test [35] deals with T35, 4H3817-bA.
T35 chain: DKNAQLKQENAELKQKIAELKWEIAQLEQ
Description: two-hybrid library CCNG1.

Test [36] has as its target T36, 4H584-bA.
T36 chain: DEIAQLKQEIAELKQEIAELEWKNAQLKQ
Description: two-hybrid library CCNG1.

In test [37] the target is T37, 4H619-bA.
T37 chain: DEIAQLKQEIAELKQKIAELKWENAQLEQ
Description: two-hybrid library CCNG1.

Test [38] addresses T38, 4H906-bA.
T38 chain: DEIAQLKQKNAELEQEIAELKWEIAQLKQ
Description: two-hybrid library CCNG1.

For test [39], the target named is T39, O6.
T39 chain: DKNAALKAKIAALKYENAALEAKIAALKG
In words: two-hybrid library CCNG1.

Test [40] has as its target T40, O7.
T40 chain: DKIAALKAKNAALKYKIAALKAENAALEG
Description: two-hybrid library CCNG1.

Test [41] deals with T41, O8.
T41 chain: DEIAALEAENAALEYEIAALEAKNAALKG
Description: two-hybrid library CCNG1.

For test [42], the target named is T42, O9.
T42 chain: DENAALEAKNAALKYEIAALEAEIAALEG
Description: two-hybrid library CCNG1.

The target of test [43] is T43, 4H3613-bA.
T43 chain: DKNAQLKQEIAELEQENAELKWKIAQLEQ
Description: two-hybrid library CCNG1.

Test [44] has as its target T44, 4H3628-bA.
T44 chain: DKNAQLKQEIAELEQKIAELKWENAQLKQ
Description: two-hybrid library CCNG1.

Test [45] deals with T45, 4H3926-bA.
T45 chain: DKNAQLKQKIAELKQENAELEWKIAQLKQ
In words: two-hybrid library CCNG1.

For test [46], the target named is T46, 4H591-bA.
T46 chain: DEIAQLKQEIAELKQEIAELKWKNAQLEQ
Description: two-hybrid library CCNG1.

The target in test [47] is T47, 4H626-bA.
T47 chain: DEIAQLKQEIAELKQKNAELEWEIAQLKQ
In words: two-hybrid library CCNG1.

Test [48] deals with T48, O7-AA.
T48 chain: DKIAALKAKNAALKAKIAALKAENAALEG
In words: two-hybrid library CCmax.

Test [49] concerns the target T49, O8-AA.
T49 chain: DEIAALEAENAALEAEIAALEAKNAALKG
In words: two-hybrid library CCmax. The settings on record: mean of both orientations.

In test [50] the target is T50, P10-AA.
T50 chain: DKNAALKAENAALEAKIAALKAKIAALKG
Description: two-hybrid library CCmax. Conditions: mean of both orientations.

The target of test [51] is T51, P9-AA.
T51 chain: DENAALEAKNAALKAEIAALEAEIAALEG
Description: two-hybrid library CCmax. Conditions: mean of both orientations.

Take DKIAALKAKIAALKAKNAALEAKNAALEG [4H2935-AA]: the interaction score in test [1] is -1.28; in test [2], -0.77; in test [3], -0.818; in [4], -1.65; in test [5], -1.44; in [6], -1.13. Besides, the interaction score is -1.89 in test [7]; -1.05 in [8]; -1.6 in [9]; 1.48 in [10]; -1.34 in test [11].
With DKNAQLKQKIAELEQENAELEWEIAQLKQ [4H3858-bA], the interaction score was 0.569 in test [12], -0.665 in test [13], 1.16 in [14] and -0.964 in test [15].
For DKNQQLEQKIQELEQENQELKWEIQELKQ [4H3354-bN], the interaction score in test [16] was 1.43; in test [17] it was -0.511; in test [18], -0.405; in [19] it was -1.06; in test [20], -0.269; in [21], -0.318. The interaction score in test [22] is -0.726; in test [23] it was -0.364; in [24], -0.0582; in [25] it was -1.25; in test [26], -0.894; in test [27], -1.09. Besides, the interaction score was -0.289 in test [28]; -0.685 in test [29]; -0.871 in test [30]; -0.992 in test [31]; -0.605 in test [32]; -0.946 in test [33]. Also, in test [34], the interaction score is -1.24.
Take DKNAQLKQENAELKQKIAELKWEIAQLEQ [4H3817-bA]: the interaction score in test [35] was -0.506; in test [12], -1.18; in test [13], 1.27; in [14] it was -1.2; in test [36] it was -1.24; in test [37] it was -1.25. Moreover, the results for the interaction score in test [15] and in test [38] were -0.849 and -0.916, respectively.
Regarding DKNAALKAKIAALKYENAALEAKIAALKG [O6], the interaction score in test [39] was -2.52; in test [40], -2.14; in test [41], -1.47; in [42] it was -0.62.
On to DKNAQLKQEIAELEQENAELKWKIAQLEQ [4H3613-bA], for which the interaction score is -0.128 in [43]; -0.292 in [44]; -0.898 in [35]; -0.117 in test [12]; 2.15 in [45]; -0.83 in test [13]. Also, the interaction score in [14] is -0.148; in test [46], -0.523; in test [47] it was -0.846; in test [15], 0.586; in [38] it was -0.971.
On to DKNAQLKQEIAELEQKIAELKWENAQLKQ [4H3628-bA], for which the interaction score was 0.549 in test [44]; 0.612 in test [35]; -0.214 in test [12]; 0.307 in test [45]; 1.31 in test [13]; -0.226 in test [14]. In addition, the interaction score is -0.511 in [46], -1.6 in [47], 0.124 in [15] and -0.866 in test [38].
For DKIAALKAKNAALKAKIAALKAENAALEG [O7-AA], the interaction score in test [48] was -1.65; in [49], 2.12; in test [50] it was -1.18; in test [51], -1.37.
